{
  "source": "patent US9201073B2",
  "about": "“Methods and compositions for enhancing proteasome activity” (President and Fellows of Harvard College, priority 2007, dated 2015)",
  "molecules": {"B1": {"name": "Ubl: N-terminal ubiquitin-like domain of Ubp6 by itself (protein)", "chain": "MSGETFEFNIRHSGKVYPITLSTDATSADLKSKAEELTQVPSARQKYMVKGGLSGEESIKIYPLIKPGSTVMLLGTPDANLIS"}, "B2": {"name": "Ubp6-C118A: catalytically inactive point mutant of Ubp6 (protein)", "chain": "MSGETFEFNIRHSGKVYPITLSTDATSADLKSKAEELTQVPSARQKYMVKGGLSGEESIKIYPLIKPGSTVMLLGTPDANLISKPAKKNNFIEDLAPEQQVQQFAQLPVGFKNMGNTAYLNATLQALYRVNDLRDMILNYNPSQGVSNSGAQDEEIHKQIVIEMKRCFENLQNKSFKSVLPIVLLNTLRKCYPQFAERDSQGGFYKQQDAEELFTQLFHSMSIVFGDKFSEDFRIQFKTTIKDTANDNDITVKENESDSKLQCHISGTTNFMRNGLLEGLNEKIEKRSDLTGANSIYSVEKKISRLPKFLTVQYVRFFWKRSTNKKSKILRKVVFPFQLDVADMLTPEYAAEKVKVRDELRKVEKEKNEKEREIKRRKFDPSSSENVMTPREQYETQVALNESEKDQWLEEYKKHFPPNLEKGENPSCVYNLIGVITHQGANSESGHYQAFIRDELDENKWYKFNDDKVSVVEKEKIESLAGGGESDSALILMYKGFGL"}},
  "key": {"[1]": {"target": "T1, Ubp6 (Saccharomyces cerevisiae, UniProt P43593)", "T1 construct": "GST (N, cleaved yes); made in house; host or cells: bacteria (pGEX-4T-1, plasmid pDL74)", "T1 sequence (P43593 1-499)": "B2 chain with A118C", "assay": "Ub-AMC hydrolysis by Ubp6 treated with ubiquitin-vinyl sulfone", "format": "biochemical, yeast", "details": "Ub-VS 2.5 μM; Ub-AMC 0.5 μM", "method": "FIG. 9A depicts the result of an in vitro ub-cyclin B assay carried out with ubp6Δ proteasomes (135 nM) supplemented with wild-type Ubp6 (540 nM) and ubiquitinvinyl sulfone (2.5 μM), as indicated. The lower panel is anti-Ubp6 immunoblot showing modification of Ubp6 by Ub-VS. Ubp6 was present in four-fold molar excess over proteasome, and thus only a fraction of Ubp6 protein was modified.\nFIG. 9B depicts the results of Ub-AMC (0.5 μM) hydroylsis assay.\nAs an alternate approach to assay non-catalytic inhibition, ubiquitin-vinyl sulfone (Ub-VS), an irreversible active site inhibitor of Ubp6, was used. Residual Ub-AMC hyrdolyzing activity in the presence of Ubp6-Ub-VS is at the level of background in this assay. […] Indeed the large excess of substrate over Ubp6 (see Methods described in Example 1) is inconsistent with a model in which Ubp6 inhibits degradation by sequestering substrate. […] Although these functions are distinct, each requires both the Ubl domain and the C-terminal domain. The Ubl domain serves in both cases to target Ubp6 to the proteasome, and that both functions are obligatorily executed on the proteasome."}, "[2]": {"target": "T2, proteasomes (Saccharomyces cerevisiae, UniProt P30656+P43588)", "T2 construct": "A previously described procedure for purification of the proteasome; TEV-ProA (TEV site + protein A), chromosomally integrated (C); made in house", "assay": "Proteasome-dependent hydrolysis of suc-LLVY-AMC", "format": "biochemical, yeast", "details": "o-PA treatment", "description": "FIG. 1E is a graph depicting proteasome-dependent hydrolysis of suc-LLVY-AMC (SEQ ID NO: 1), a ubiquitin-independent fluorogenic proteasome substrate. Error bars reflect standard deviations.\nThe next studies were designed to determine whether the observed difference in cyclin B degradation was due specifically to Ubp6. Proteasomes were examined by Coomassie blue staining (FIG. 1D) and native gel electrophoresis, and no evidence for either an unexpected compositional difference or a gross structural abnormality in mutant proteasomes was found (see also Guterman and Glickman. (2004). Complementary roles for Rpn11 and Ubp6 in deubiquitination and proteolysis by the proteasome. J. Biol. Chem. 279, 1729-1738)."}, "[3]": {"target": "T3, ubp6Δ proteasomes (Saccharomyces cerevisiae, UniProt P30656+P43588)", "T3 construct": "proteasomes purified from ubp6Δ mutants; TEV-ProA (TEV site + protein A), chromosomally integrated (C); made in house", "assay": "In vitro ub-cyclin B deubiquitination/degradation assay with purified yeast proteasomes", "format": "biochemical", "details": "for inhibition of cyclin B degradation: ubp6Δ proteasomes 135 nM, recombinant Ubp6 or Usp14 species 540 nM, Ubl and Ubl-MBP 1.35 μM, preincubated 5 min, immunoblot", "method": "Proteasomes (135 nM) were incubated with ub-cyclin Bin the presence of 1 mM ATP and buffer (50 mM Tris [pH 7.51, 1 mM EDTA, 5 mM MgCl2) for the indicated times. Reactions were terminated by the addition of 5×SDS Laemmli loading buffer (Leggett, et al. (2002). Multiple associated proteins regulate proteasome structure and function. Mol. Cell. 10, 495-507) and boiled for 5 min. Where indicated, recombinant, purified Ubp6 or Usp14 species (540 nM) were preincubated with proteasomes for 5 min prior to the reaction. […] Unless otherwise noted, immunoblots were visualized with anti-cyclin B1 polyclonal antibodies. Polyclonal antibodies recognizing Ubp6, Rpn5, Rpn12, and ubiquitin were used as indicated. Ub-cyclin B was added in molar excess over proteasome, generally on the order of 25-fold, except for FIGS. 4C, 6A and 6B, where the substrate:enzyme ratio was increased by a factor of five.\nIn the experiments of FIGS. 1, 4 (except FIG. 4C), and 6C, time points were sampled after the preparation of a single reaction mixture. The zero time points therefore reflect a lag which represents the amount of time required to sample the first time point after having prepared the reaction mixture. […] In the experiments of FIGS. 2, 4C, and 6 (except 6C), each time point was carried out as an independent reaction. The zero time points were prepared in the presence of 5×LLB, and accordingly, no processing could occur before time zero.\nUbiquitination of cyclin B was carried out. Briefly, for each 30 μl reaction, Anaphase Promoting Complex (APC) was immunopurified from 600 μl of mitotic Xenopus egg extract with 12 μg of anti-Cdc27 antibodies (AF3.1, Santa Cruz Biotechnologies, Santa Cruz, Calif.) bound to 30 μl of Affiprep Protein A beads (Bio-Rad, Hercules, Calif.). Beads were washed three times with XB high salt (10 mM potassium HEPES pH 7.7, 500 mM KCl, 0.1 mM CaCl2, 1 mM MgCl2), two times with XB (same but with 100 mM KCl), and then three times into the reaction buffer (20 mM Tris pH 7.5, 100 mM KCl, 2.5 mM MgCl2, 2 mM ATP). Ubiquitination reactions contained immunoprecipitated APC on 30 μl of beads, and 30 μl of a mix containing recombinant MBP-human E1 at 200 μg/ml, histidine-tagged Ubc4 at 66 μg/ml, ubiquitin at 1.25 mg/ml, and 50 μg/ml of histidine-tagged cyclin B1/cdc2 complex expressed in baculovirus. Reactions were incubated for 90 minutes at 22° C. with agitation on a shaker at 1,000 RPM. Reaction supernatants were combined with the eluate from the wash of beads with 20 μl of reaction buffer. Reactions were either used fresh after preparation or frozen at −80° C. until use with purified proteasomes."}, "[4]": {"system": "Ub-AMC", "assay": "Ub-AMC hydrolyzing activity of purified recombinant Ubp6 species", "format": "biochemical", "details": "purified recombinant enzyme 0.5 μM", "method": "FIG. 8 is a graph depicting that the Ubp6-C118A mutant lacks deubiquitinating activity. Ub-AMC hydrolyzing activity of purified recombinant wild-type Ubp6 or Ubp6-C118A (0.5 μM). Ub-AMC, no enzyme control."}, "[5]": {"target": "T4, RP purified from a ubp6Δ mutant (Saccharomyces cerevisiae, UniProt P43588)", "T4 construct": "TEV-ProA (TEV site + protein A), chromosomally integrated (C); made in house", "assay": "Processing of ub-cyclin B by regulatory particle (RP)", "format": "biochemical, yeast", "details": "RP 135 nM, four-fold molar excess of Ubp6 species", "method": "FIGS. 6A and 6B depict the processing of ub-cyclin B by RP (ubp6Δ) in the presence or absence of purified Ubp6. Reactions were visualized by immunoblotting with anti-cyclin B antibody or anti-ubiquitin antibody, as indicated.\nFIG. 12 is an illustration depicting the RP-mediated disassembly of Ub-cyclin B conjugates by Ubp6. Proteasome regulatory particle (135 nM) purified from a ubp6Δ strain was combined with a four-fold molar excess of Ubp6, Ubp6-ublΔ, or Ubp6-C118A, and Ub-Cyclin B, and incubated for the indicated times. Reactions were visualized by immunoblot with anti-ubiquitin antibody. *represents a non-ubiquitin immunoreactive band.\nA previously described procedure for purification of the proteasome (Leggett, et al. (2002). Multiple associated proteins regulate proteasome structure and function. Mol. Cell. 10, 495-507) was modified by adding 1 mM ATP and 5 mM MgCl2 to all purification buffers, and by washing resins with 100 bed vol. of buffer containing 50 mM NaCl, as opposed to 50 bed vol. of buffer containing 100 mM NaCl. RP was purified in the presence of ATP and MgCl2 as described (Leggett et al., 2002).\nProteasomes (135 nM) were incubated with ub-cyclin Bin the presence of 1 mM ATP and buffer (50 mM Tris [pH 7.51, 1 mM EDTA, 5 mM MgCl2) for the indicated times. […]"}, "[6]": {"target": "T3, ubp6Δ proteasomes", "assay": "Quantitation of proteasome inhibition by quantitative mass spectrometry of cyclin B", "format": "biochemical, yeast", "details": "20-minute incubation", "method": "A standard substrate degradation assay was carried out, and analyzed in parallel by SDS-PAGE followed by Coomassie blue staining and immunoblot with anti-cyclin B antibody. Immunoblots were used to identify and excise the cyclin B-containing regions of the Coomassie-stained gel, and the lanes were analyzed by mass spectrometry.\nTo quantify the extent of proteasome inhibition by Ubp6, a method of quantitative mass spectrometry was utilized. After a 20-minute incubation, approximately half of the total cyclin B was degraded by ubp6Δ proteasomes (FIG. 4C)."}, "[7]": {"target": "T5, proteasome (Saccharomyces cerevisiae, UniProt P30656+P43588)", "T5 construct": "A previously described procedure for purification of the proteasome; TEV-ProA (TEV site + protein A), chromosomally integrated (C); made in house", "assay": "Ub-Cdc34 binding assay (electrophoretic mobility shift of proteasome)", "parameters": "species or system yeast", "details": "proteasome 4 pmoles, ub-Cdc34 8 pmoles, Ubp6-C118A 8 pmoles", "method": "Binding of ubiquitinated-Cdc34 (8 pmoles) to proteasome (4 pmoles) was carried by native gel electrophoresis followed by overlay of the fluorogenic activity-based probe, suc-LLVY-AMC (SEQ ID NO: 1), as previously described (Elsasser, et al. (2004). Rad23 and Rpn10 serve as alternative ubiquitin receptors for the proteasome. J. Biol. Chem. 279, 26817-26822). Ubp6 or Ubp6-C118A (8 pmoles) were preincubated with proteasomes prior to substrate addition."}},
  "note": "Positions count from the first letter of the chain named. Names and notes keep the numbering of the source.",
  "data": [
    {"molecule": "ubiquitin-vinyl sulfone [Ub-VS]", "values": [
      {"measurement": "catalytic activity of wild-type Ubp6 as measured by Ub-AMC hydrolysis", "setting": "[1]", "result": "completely eliminated"}
    ]},
    {"molecule": "c1cnc2c(c1)ccc1cccnc12", "note": "[o-PA, o-phenanthroline, reference compound]", "values": [
      {"measurement": "LLVY-hydrolysis by proteasomes", "setting": "[2]", "result": "no effect"},
      {"measurement": "deubiquitination and degradation of cyclin B", "setting": "[3]; ubp6Δ proteasomes, o-PA 10 mM added 10 min prior to cyclin B", "result": "strongly inhibited"}
    ]},
    {"molecule": "B1", "values": [
      {"measurement": "inhibition of cyclin B degradation", "setting": "[3]", "result": "no effect on cyclin B degradation"}
    ]},
    {"molecule": "B2", "values": [
      {"measurement": "deubiquitinating activity against the model substrate Ub-AMC", "setting": "[4]", "result": "completely devoid of deubiquitinating activity"},
      {"measurement": "processing of ub-cyclin B conjugates by RP", "setting": "[5]", "result": "no effect on substrate processing"},
      {"measurement": "inhibition of cyclin B degradation", "setting": "[3]", "result": "competent for inhibition"},
      {"measurement": "inhibition of degradation (cyclin B)", "setting": "[6]", "result": "approximately 70%"},
      {"measurement": "conjugate (ubiquitinated Cdc34) binding to the proteasome", "setting": "[7]", "result": "comparable conjugate binding"}
    ]}
  ]
}
